These results are taken from patent publication US20240262791A1, “B[…] […] AMINO ACIDS” (priority 2021, published 2024).

Experiment [1] has as its target Spike protein on SARS-CoV-2 GFP Reporter Virus Particles (pseudotyped lentivirus), wild-type strain (SARS-CoV-2) (UniProt P0DTC2). Briefly: cell-based or functional assay.
Experiment [2] concerns the target Spike protein on authentic SARS-CoV-2 Nanoluciferase virus (USA/WA1-2020) (SARS-CoV-2) (UniProt P0DTC2). Briefly: cell-based or functional assay.
Experiment [3] addresses SARS-CoV-2 (2019-nCoV) Spike RBD-mFc Recombinant Protein (SARS-CoV-2; mouse) (UniProt P0DTC2). Briefly: time course 0 to 16 h at 37 °C, Western blot. For orientation: Immunoblotting shows a protein as a band on a membrane.

In turn, “mNb6 dimer with one FFY at position 108 of the N-terminal mNb6 (VHH)” registered an IC50, neutralizing pseudovirus in experiment [1] of 1.9 nM. In experiment [2], this substance yielded an IC50, neutralizing authentic SARS-CoV-2 virus of 0.28 nM.

On to “ACE2-34FSY (soluble human ACE2, amino acids 1 to 740, FSY at H34, C-terminal His x6) (from UniProt Q9BYF1 18-740) (receptor)”, for which the apparent second-order rate constant of covalent crosslinking in experiment [3] came out at 123 M⁻¹ s⁻¹.
